Laboratory results reported in article PMC6613838 (Autophagy, 2019).

B1: GST-UVRAG C-terminal fragment (501–699 aa) (domain or fragment)
chain: KGHRKRASSENERLQYKTPPPSYNSALAQPVTTVPSMGETERKITSLSSSLDTSLDFSKENKKKGEDLVGSLNGGHANVHPSQEQGEALSGHRATVNGTLLPSEQAGSASVQLPGEFHPVSEAELCCTVEQAEEIIGLEATGFASGDQLEAFNCIPVDSAVAVECDEQVLGEFEEFSRRIYALNENVSSFRRPRRSSDK
B2: His-CSNK1A1 (enzyme)
chain: MASSSGSKAEFIVGGKYKLVRKIGSGSFGDIYLAINITNGEEVAVKLESQKARHPQLLYESKLYKILQGGVGIPHIRWYGQEKDYNVLVMDLLGPSLEDLFNFCSRRFTMKTVLMLADQMISRIEYVHTKNFIHRDIKPDNFLMGIGRHCNKLFLIDFGLAKKYRDNRTRQHIPYREDKNLTGTARYASINAHLGIEQSRRDDMESLGYVLMYFNRTSLPWQGLKAATKKQKYEKISEKKMSTPVEVLCKGFPAEFAMYLNYCRGLRFEEAPDYMYLRQLFRILFRTLNHQYDYTFDWTMLKQKAAQQAASSSGQGQQAQTPTGKQTDKTKSNMKGF
B3: GST-UVRAG FL (natural protein)
chain: MSASASVGGPVPQPPPGPAAALPPGSAARALHVELPSQQRRLRHLRNIAARNIVNRNGHQLLDTYFTLHLCSTEKIYKEFYRSEVIKNSLNPTWRSLDFGIMPDRLDTSVSCFVVKIWGGKENIYQLLIEWKVCLDGLKYLGQQIHARNQNEIIFGLNDGYYGAPFEHKGYSNAQKTILLQVDQNCVRNSYDVFSLLRLHRAQCAIKQTQVTVQKIGKEIEEKLRLTSTSNELKKKSECLQLKILVLQNELERQKKALGREVALLHKQQIALQDKGSAFSAEHLKLQLQKESLNELRKECTAKRELFLKTNAQLTIRCRQLLSELSYIYPIDLNEHKDYFVCGVKLPNSEDFQAKDDGSIAVALGYTAHLVSMISFFLQVPLRYPIIHKGSRSTIKDNINDKLTEKEREFPLYPKGGEKLQFDYGVYLLNKNIAQLRYQHGLGTPDLRQTLPNLKNFMEHGLMVRCDRHHTSSAIPVPKRQSSIFGGADVGFSGGIPSPDKGHRKRASSENERLQYKTPPPSYNSALAQPVTTVPSMGETERKITSLSSSLDTSLDFSKENKKKGEDLVGSLNGGHANVHPSQEQGEALSGHRATVNGTLLPSEQAGSASVQLPGEFHPVSEAELCCTVEQAEEIIGLEATGFASGDQLEAFNCIPVDSAVAVECDEQVLGEFEEFSRRIYALNENVSSFRRPRRSSDK

What was measured:
[1] = target: His-SMURF1 (E. coli) (human, UniProt Q9HCE7-2 1-731); assay: pull-down
[2] = target: B3; assay: pull-down

Row | Binder | binding result [1] | binding result [2]
1 | B1 | binds | –
2 | B2 | – | binds
3 | B3 | binds | –
